결합력, fold higher than humanized clone 19D, binding result and 결합력, fold higher than the control Oncomed-313M32 antibody data for 17 molecules are collected here from patent KR20220082776A (dated 2022).

The target of assay [1] is T1, 재조합 인간 TIGIT-His 단백질 (recombinant human TIGIT-His protein) (human) (UniProt Q495A1).
T1 sequence (looked up): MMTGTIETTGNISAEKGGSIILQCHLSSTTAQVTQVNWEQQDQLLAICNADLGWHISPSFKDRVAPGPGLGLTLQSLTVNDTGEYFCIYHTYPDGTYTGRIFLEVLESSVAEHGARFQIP
Briefly: SPR, humanized antibodies; antigen not given. Background: SPR reads the build-up and loss of mass on a sensor chip optically.

Assay [2] concerns the target T2, 인간 TIGIT (human TIGIT on cells) (human, UniProt Q495A1 22-244).
T2 construct: whole, on cells; also called hTIGIT
T2 sequence (looked up): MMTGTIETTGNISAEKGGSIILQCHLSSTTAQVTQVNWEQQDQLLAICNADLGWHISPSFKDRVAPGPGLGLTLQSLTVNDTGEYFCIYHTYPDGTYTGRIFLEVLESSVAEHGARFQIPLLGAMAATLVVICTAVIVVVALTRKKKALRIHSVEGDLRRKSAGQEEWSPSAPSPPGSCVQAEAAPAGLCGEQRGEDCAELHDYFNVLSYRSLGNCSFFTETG
Briefly: flow cytometry on artificial effector T cells expressing TIGIT.

The target of assay [3] is T1, 재조합 인간 TIGIT-His 단백질 (recombinant human TIGIT-His protein) (human). In words: SPR, chimeric antibodies; antigen not given.
In assay [4] the target is T2, 인간 TIGIT (human TIGIT on cells). In words: flow cytometry on CD4 and CD8 T cells of anti-hCD3/28-activated human PBMC. In general terms: In flow cytometry, cells or beads pass a laser one at a time.
The target of assay [5] is T3, 재조합 인간 TIGIT-His 단백질 (recombinant human TIGIT-His protein) (human, UniProt Q495A1 22-141).
T3 construct: All are treated here as one molecule; also called TIGIT-His(Sino); 항원; not shown: His tag
T3 sequence (looked up): T1 sequence (looked up)
Briefly: hybridoma culture medium; 도 1 is flow cytometry on anti-hCD3/28-activated human T cells, the sentence names recombinant human TIGIT-His.

Assay [6] addresses T3, 재조합 인간 TIGIT-His 단백질 (recombinant human …). In words: SPR; antigen not given.
Assay [7] has the same target. In words: method not named in the sentence (SPR of Example 7); antigen not given.
The target is the same in assay [8]. Briefly: ELISA, plate coated with recombinant human TIGIT-His, as in Example 3-(1). In general terms: In an ELISA, binding on a coated surface is turned into a signal by an enzyme label.
For assay [9] the target is unchanged. Briefly: ELISA, plate coated with recombinant human TIGIT-His, anti-hIgG-HRP detection.

Substitutions are numbered along the chain they refer to.

B1: 인간화 후보항체 clone 63F (antibody, V domains shown)
VH: EVQLVESGGGLVQPGGSLRLSCAASGSTFSNYWMNWVRQAPGKGLEWVAEIRLKFNNYATHYVESVIGRFTISRDDSKNSVYLQMNSLKTEDTAVYYCTMVRRNWYFDVWGRGTLVTVSS
VL: EIVLTQSPATLSLSPGERATLSCSASSSVSSSYLYWYQQKPGLAPRLWIYSTSNLASGIPDRFSGSGSGTDYTLTISRLEPEDFAVYYCHQWSSYPYTFGQGTKLEIK
notes: Humanized; also called 인간화 후보항체 63F; humanized 63F
B1: the 결합력, fold higher than humanized clone 19D in [1] is 13 배. Also, the binding result in [2] is given as “binds”.

B2: 인간화 후보항체 clone 75G (antibody, V domains shown)
VH: B1 VH with S27V, N57D, I67K
VL: B1 VL with S32G, N54D
notes: Humanized; also called 인간화 후보항체 75G; humanized 75G
For the molecule B2, in assay [1], the 결합력, fold higher than humanized clone 19D is 36 배. Moreover, the binding result in assay [2] was “binds”.

B3: chimeric-후보항체 clone 62F (antibody, V domains shown)
VH: EVQLQQSGPELVKPGASVKISCKTSGFTFTEYTMHWVKQSHGKSLEWIGGFNPNSGGSSYNQKFKGKATLTVDKSSSTAFMELRSLTSEDSAAYYCARSSYYRFDLDYWGQGTTLTVSS
VL: DIVMTQSHKFMSTSVGDRVSITCKASQDVKTAVAWYQQKPGQSPQLLIYSASFRYTGVPDRFTGSGSGADFTFTISSVQAEDLAAYYCQQHYTTPWTFGGGTKLEIK
notes: also called chimeric 62F
Regarding B3, the 결합력, fold higher than the control Oncomed-313M32 antibody in [3] is 30 배. For the same molecule, the binding result in [4] is recorded as “binds”.

B4: clone 62F (hybridoma antibody) (antibody, V domains shown)
VH: B3 VH
VL: B3 VL
notes: Mouse hybridoma antibody
As to B4, in assay [5], the binding result is “binds”.

B5: chimeric-후보항체 clone 58E (antibody, V domains shown)
VH: EVQLQQSGPELVKPGASVKMSCKASGYTFTSYVMHWVKQKPGQGLEWIGYINLNNDGTKYNEKFKGKATLSSDKSSSTAYMELSSLTSEDSAVYYCARWRVYYYAMDYWGQGTSVTVSS
VL: EIVLTQSPAITAASLGQKVTITCSASSSVNYMHWYQQKSGTSPRPWIYEISKLASGVPARFSGSGSGTSYSLTISSMEAEDAAIYYCQLWNYPLITFGAGTKLELK
notes: also called chimeric 58E; 후보항체 58E
Regarding B5, the 결합력, fold higher than the control Oncomed-313M32 antibody in [3] is 13 배. Besides, the binding result in assay [4] was “binds”.

B6: T21.09 (antibody, V domains shown)
VH: B5 VH
VL: EIVLTQSPATLSLSPGERATLSCNASSSVDYVHWYQQKPGQAPRPWIYEISKLASGIPARFSGSGSGTDYTLTISSLEPEDFAVYYCQLWNYPLITFGQGTKVEIK
notes: Gene engineered variant of 58E; also called clone T21.09
Regarding B6, the binding result in assay [6] is “binds”.

B7: T21.11 (antibody, V domains shown)
VH: QVQLVQSGAEVKKPGASVKVSCKASGYTFTSYVMHWVRQAPGQRLEWIGYINLNNDGTKYNEKFKGRATLTSDKSASTAYMELSSLRSEDTAVYYCARWRVYYYAMDYWGQGTLVTVSS
VL: B5 VL with S24N, N30D, M32V
notes: Gene engineered variant of 58E: humanized 58E heavy chain, light chain T21L01; also called clone T21.11
As to B7, the binding result in assay [6] is reported as “binds”.

B8: clone 58E (hybridoma antibody) (antibody, V domains shown)
VH: B5 VH
VL: B5 VL
notes: Mouse hybridoma antibody (culture medium)
For B8, the binding result in assay [5] is on record as “binds”.

B9: T21.01 (antibody, V domains shown)
VH: B5 VH
VL: B5 VL with S24N, N30D, M32V
notes: Gene engineered variant of 58E; produced in Expi293F; also called clone T21.01
Consider B9, for which the binding result in assay [6] is “binds”.

B10: T21.13 (antibody, V domains shown)
VH: B7 VH
VL: B6 VL
notes: Gene engineered variant of 58E; also called clone T21.13
B10: in assay [6], the binding result is reported as “binds”.

B11: T21.33 (antibody, V domains shown)
VH: B7 VH
VL: B6 VL with D69S
notes: also called clone T21.33
Consider B11, for which the binding result in [7] is on record as “binds”.

B12: 인간화 후보항체 clone 19D (antibody, V domains shown)
VH: QVQLVQSGAEVKKPGASVKVSCKASGYTFSNYVMHWVRQAPGQRLEWIGYINPYNDGTKYNEKFKGRATLTSDRSASTAYMELSSLRSEDTAVYYCARWRVNYYFDYWGQGTLVTVSS
VL: DIQLTQSPSSLSASVGDRVTITCRASSSVNYMHWYQQKPGKAPKAWISVTSNLASGVPSRFSGSGSGTDYTLTISSLQPEDFATYYCQQWSSNPPWTFGQGTKVEIK
notes: Humanized; also called 인간화 후보항체 19D; humanized 19D
Take B12: the binding result in assay [8] and in assay [2] was “binds” each time.

B13: chimeric-후보항체 clone 19D (antibody, V domains shown)
VH: EVQLQQSGPELVKPGASVKMSCKASGYTFSNYVMHWVKQKPGQGLEWIGYINPYNDGTKYNEKFKGKATLTSDRSSSTAYMELSSLTSEDSAVYYCARWRVNYYFDYWGQGTTLTVSS
VL: QIVLSQSPAILSASPGEKVTMTCRASSSVNYMHWYQQKPGSSPKAWISVTSNLASGVPARFSGSGSGTSYSLTISRVEAEDAATYYCQQWSSNPPWTFGGGTKLEIK
notes: Produced in Expi293; also called chimeric 19D
Regarding B13, in assay [9], the binding result is reported as “binds”.

B14: 인간화 후보항체 clone 62F (antibody, V domains shown)
VH: QVQLVQSGAEVKKPGASVKVSCKASGFTFTEYTMHWVRQAPGQGLEWIGGFNPNSGGSSYNQKFKGRATLTVDKSISTAYMELSRLRSDDTAVYYCARSSYYRFDLDYWGQGTTVTVSS
VL: DIQMTQSPSSLSASVGDRVTITCKASQDVKTAVAWYQQKPGKAPKLLIYSASFRYTGVPSRFSGSGSGADFTLTISSLQPEDFATYYCQQHYTTPWTFGQGTKVEIK
notes: Humanized; also called 인간화 후보항체 62F; hu62F
In the case of B14, the 결합력, fold higher than humanized clone 19D in assay [1] was 33 배. In addition, the binding result in assay [2] is listed as “binds”.

B15: chimeric-후보항체 clone 63F (antibody, V domains shown)
VH: EVQLEEFGGGLVQPGGSMKLSCVASGSTFSNYWMNWVRQSPEKGLEWVAEIRLKFNNYATHYVESVIGRFTISRDDSKSSVYLQMNNLRAEDTGIYYCTMVRRNWYFDVWGAGTTVTVSS
VL: QIVLTQSPAIMSAFPGEKVTLTCSASSSVSSSYLYWYQQKPRSSPKLWIYSTSNLASGVPARFSGSGSGTSYSLTISSMEAEDAASYFCHQWSSYPYTFGGGTKLEIK
With B15, the 결합력, fold higher than the control Oncomed-313M32 antibody in [3] is 6 배.

B16: clone 75G (hybridoma antibody) (antibody, V domains shown)
VH: B15 VH with Q3N, F7S, S27V, N57D, I67K, K78E
VL: B15 VL with F14S, S32G, Q39K, R42G, N54D, S71F, S78N
notes: as for B8
Take B16: the binding result in [5] is recorded as “binds”.

B17: chimeric-후보항체 clone 75G (antibody, V domains shown)
VH: B15 VH with Q3N, F7S, S27V, N57D, I67K, K78E
VL: B15 VL with F14S, S32G, Q39K, R42G, N54D, S71F, S78N
notes: also called chimeric 75G
Turning to B17, the 결합력, fold higher than the control Oncomed-313M32 antibody in assay [3] is 30 배. In addition, the binding result in [4] is “binds”.
